Source: paper PMC12819146
One block for each substance: values may come before it.

Experiments:
[1] = target: PtuA-E396Q of retron Ec78 (ATPase-deficient mutant), as expressed from the Ec78 operon (E. coli ECONIH5); assay: cryo-EM structure
[2] = target: PtuA-Q361L of retron Ec78, His-Sumo tagged, co-expressed with PtuB without the retron (E. coli ECONIH5); assay: cryo-EM structure
[3] = target: PtuA of retron Ec78, wild type, His-Sumo tagged (E. coli ECONIH5); assay: SEC

Substance: PtuB of retron Ec78 with C-terminal His-tag, as expressed from the Ec78 operon (enzyme)
stoichiometry N (PtuB subunits for four PtuA subunits) [1]: 2

Substance: PtuA-E396Q of retron Ec78 (ATPase-deficient mutant), as expressed from the Ec78 operon (enzyme)
stoichiometry N [1]: 4

Substance: PtuB of retron Ec78, co-expressed with His-Sumo-PtuA from pRSF-Duet (enzyme)
stoichiometry N (PtuB subunits for four PtuA subunits) [2]: 2

Results, then the substance that gave them:

stoichiometry N [2]: 4
Substance: PtuA-Q361L of retron Ec78, His-Sumo tagged, co-expressed with PtuB without the retron (enzyme)

stoichiometry N [3]: 4
Substance: PtuA of retron Ec78, wild type, His-Sumo tagged (enzyme)

stoichiometry N (RT for four PtuA subunits) [1]: 2
stoichiometry N (RT–ncRNA–msDNA for four PtuA subunits) [1]: 1
Substance: Reverse transcriptase of retron Ec78 (enzyme)
